This experiment addresses T1, a-subunit of recombinant Enterococcus hirae V-ATPase (Enterococcus hirae, UniProt P43439 1-664).
T1 construct: a-subunit of Enterococcus hirae V-ATPase (NtpI); In the map it is represented by a T. thermophilus model (PDB 5GAS) and a homology model of its C-terminal half; also called Eh a-subunit; transmembrane a-subunit; source: E. coli, expressed from pTR19-EhV-ATPase, purified as part of the whole r-EhV-ATPase (Ni-NTA, Superdex 200) in 0.05% DDM
T1 sequence (looked up): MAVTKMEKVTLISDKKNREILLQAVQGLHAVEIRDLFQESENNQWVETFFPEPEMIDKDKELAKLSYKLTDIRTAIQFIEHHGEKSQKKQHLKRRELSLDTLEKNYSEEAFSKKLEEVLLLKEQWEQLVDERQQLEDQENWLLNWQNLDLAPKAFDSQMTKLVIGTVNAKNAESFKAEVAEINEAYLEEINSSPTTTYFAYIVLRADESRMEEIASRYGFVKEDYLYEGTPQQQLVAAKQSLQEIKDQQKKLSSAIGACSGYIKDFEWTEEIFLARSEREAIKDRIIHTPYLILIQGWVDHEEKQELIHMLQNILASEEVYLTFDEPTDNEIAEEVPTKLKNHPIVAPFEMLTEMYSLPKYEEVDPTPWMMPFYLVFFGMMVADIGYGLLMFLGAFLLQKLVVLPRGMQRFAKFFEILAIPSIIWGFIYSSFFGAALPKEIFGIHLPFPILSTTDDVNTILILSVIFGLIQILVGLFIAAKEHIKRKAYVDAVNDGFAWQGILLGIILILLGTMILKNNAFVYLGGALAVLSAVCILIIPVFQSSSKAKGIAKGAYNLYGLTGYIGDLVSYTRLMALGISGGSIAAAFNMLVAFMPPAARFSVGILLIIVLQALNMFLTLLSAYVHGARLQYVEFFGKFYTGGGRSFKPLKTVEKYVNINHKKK
Description: cryo-EM structure; Zernike phase plate single-particle cryo-EM of r-EhV-ATPase in 0.05% DDM, 17.3 Å; earlier atomic models and homology models fitted into the map. To be noted: both partners purified.

B1: EG complex (peripheral stalk) of recombinant Enterococcus hirae V-ATPase (complex)
chain 1: MPIDKIITQINETAQLERASFEEMKRKEIDQKFEVKKWQIEADFQKEKASKLEEIERSYRQLRNKQKMQVKQEILNAKQEVLQRLFTEATLQLENEPKEEQLALMKQMIQTLPINGTARLIPGEKSADILTPAVIAEWNEELPFELIREDFTEKAQAGLIIDDAGIQYNFLFSHLIKEIQETMSAEIAKELFD
chain 2: MARILTRIKEAEENNQKKEEQVKAELAQYEQLKNNELIDLNKEFQERLTKLMKEKEKNEEEVTEDEQHKLELILEQFRQKVLEIEKTYLEKEEEEIAKKKNLTNEIIERMKQNNGCH
notes: E-subunit of Enterococcus hirae V-ATPase (NtpE); G-subunit of Enterococcus hirae V-ATPase (NtpF); Two EG peripheral stalks stand in the whole enzyme; The models fitted into the map for EG are of T. thermophilus (PDB 3K5B, 3V6I), not of E. hirae; also called peripheral stalks; source: E. coli, expressed from pTR19-EhV-ATPase, purified as part of the whole r-EhV-ATPase (Ni-NTA, Superdex 200) in …
In the case of B1, the binding result is listed as “binds”.

These data come from PMC6199243 (Scientific Reports, 2018).
